The record followed here is patent publication CN116496403A (ZEDA BIOMEDICAL CO LTD, dated 2023).

The term EC50 denotes the concentration at which the effect is half-maximal. A higher EC50 goes with a need for much substance.

One assay deals with T1, PDL1-ECD-hFc蛋白 (UniProt Q9NZQ7 19-238).
T1 construct: extracellular domain; PDL1-ECD-His with the C-terminal tag changed to hFc; also called PDL1抗原; not shown: hFc tag at the C-terminus in place of the His tag
Put plainly: sandwich ELISA: PDL1-ECD-hFc coated, antibody, then IGF1R-ECD-His, HRP-anti-His.

The target in the next assay is IGF1R on BxPC3 cells (human, UniProt P08069 31-1367). Put plainly: cell-based or functional assay.
The target in assay [1] is T2, IGF1R-ECD-His蛋白 (UniProt P08069 31-935).
T2 construct: extracellular domain; Expressed in HEK-293E cells; also called IGF1R抗原
Kind of assay: ELISA, IGF1R-ECD-His coated, HRP-anti-hFc. A general note: In an ELISA, binding on a coated surface is turned into a signal by an enzyme label.

The target of assay [2] is PD-L1 on PD-L1 aAPC/CHO-K1 cells (UniProt Q9NZQ7 19-290). Put plainly: cell-based or functional assay.
The target of assay [3] is T2, IGF1R-ECD-His蛋白. Kind of assay: sandwich ELISA: PDL1-ECD-hFc coated, antibody, then IGF1R-ECD-His, HRP-anti-His.
A further assay has as its target T3, PDL1-ECD-His蛋白 (UniProt Q9NZQ7 19-238).
T3 construct: extracellular domain; Expressed in HEK-293E cells; also called PD-L1抗原; PDL1抗原
Kind of assay: ELISA, PDL1-ECD-His coated, HRP goat anti-human Fc.

Several values for one entry are separate records, joined by “and”; a condition that tells them apart may be missing. Equal values may be shown once.

T3 sequence (Q9NZQ7 other isoform, or with tags, fused parts or gaps): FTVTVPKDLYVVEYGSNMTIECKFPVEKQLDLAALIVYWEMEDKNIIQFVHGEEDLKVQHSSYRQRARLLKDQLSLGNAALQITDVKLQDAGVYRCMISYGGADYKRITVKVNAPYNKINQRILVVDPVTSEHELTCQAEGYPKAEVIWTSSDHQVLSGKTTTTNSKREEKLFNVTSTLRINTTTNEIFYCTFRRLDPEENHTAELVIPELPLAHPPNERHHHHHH
T2 sequence (P08069 31-935): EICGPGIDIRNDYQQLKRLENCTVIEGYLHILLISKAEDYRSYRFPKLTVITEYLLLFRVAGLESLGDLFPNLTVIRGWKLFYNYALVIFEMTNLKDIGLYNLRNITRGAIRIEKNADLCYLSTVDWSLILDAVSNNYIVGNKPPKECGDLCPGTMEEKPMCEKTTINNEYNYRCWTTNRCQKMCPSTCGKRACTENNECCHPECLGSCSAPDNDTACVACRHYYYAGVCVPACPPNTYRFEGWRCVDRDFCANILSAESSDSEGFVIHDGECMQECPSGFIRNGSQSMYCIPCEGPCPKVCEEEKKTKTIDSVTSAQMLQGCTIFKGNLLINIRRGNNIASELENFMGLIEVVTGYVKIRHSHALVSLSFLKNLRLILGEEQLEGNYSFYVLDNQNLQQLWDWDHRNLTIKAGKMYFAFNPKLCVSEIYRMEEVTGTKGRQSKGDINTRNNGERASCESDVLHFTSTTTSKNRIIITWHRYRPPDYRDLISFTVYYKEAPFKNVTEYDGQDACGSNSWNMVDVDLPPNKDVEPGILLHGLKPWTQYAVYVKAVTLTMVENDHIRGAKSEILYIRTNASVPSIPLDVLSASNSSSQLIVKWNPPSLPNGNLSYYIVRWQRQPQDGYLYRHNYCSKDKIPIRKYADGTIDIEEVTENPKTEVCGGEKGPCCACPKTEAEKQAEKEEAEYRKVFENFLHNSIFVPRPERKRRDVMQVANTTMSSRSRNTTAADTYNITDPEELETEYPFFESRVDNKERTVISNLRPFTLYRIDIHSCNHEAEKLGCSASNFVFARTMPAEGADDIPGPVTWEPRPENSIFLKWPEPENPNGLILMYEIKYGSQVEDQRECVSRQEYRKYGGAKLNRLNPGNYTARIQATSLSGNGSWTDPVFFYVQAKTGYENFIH
Sequence of PD-L1 on PD-L1 aAPC/CHO-K1 cells (Q9NZQ7 19-290): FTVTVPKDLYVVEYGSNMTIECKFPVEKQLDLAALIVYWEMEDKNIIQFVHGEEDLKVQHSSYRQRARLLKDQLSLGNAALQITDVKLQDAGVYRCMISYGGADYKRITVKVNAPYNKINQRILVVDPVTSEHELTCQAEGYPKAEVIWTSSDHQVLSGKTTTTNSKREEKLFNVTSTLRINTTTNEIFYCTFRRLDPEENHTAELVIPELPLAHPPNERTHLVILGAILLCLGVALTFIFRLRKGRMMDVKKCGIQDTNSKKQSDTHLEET
Sequence of IGF1R on BxPC3 cells (P08069 31-1367): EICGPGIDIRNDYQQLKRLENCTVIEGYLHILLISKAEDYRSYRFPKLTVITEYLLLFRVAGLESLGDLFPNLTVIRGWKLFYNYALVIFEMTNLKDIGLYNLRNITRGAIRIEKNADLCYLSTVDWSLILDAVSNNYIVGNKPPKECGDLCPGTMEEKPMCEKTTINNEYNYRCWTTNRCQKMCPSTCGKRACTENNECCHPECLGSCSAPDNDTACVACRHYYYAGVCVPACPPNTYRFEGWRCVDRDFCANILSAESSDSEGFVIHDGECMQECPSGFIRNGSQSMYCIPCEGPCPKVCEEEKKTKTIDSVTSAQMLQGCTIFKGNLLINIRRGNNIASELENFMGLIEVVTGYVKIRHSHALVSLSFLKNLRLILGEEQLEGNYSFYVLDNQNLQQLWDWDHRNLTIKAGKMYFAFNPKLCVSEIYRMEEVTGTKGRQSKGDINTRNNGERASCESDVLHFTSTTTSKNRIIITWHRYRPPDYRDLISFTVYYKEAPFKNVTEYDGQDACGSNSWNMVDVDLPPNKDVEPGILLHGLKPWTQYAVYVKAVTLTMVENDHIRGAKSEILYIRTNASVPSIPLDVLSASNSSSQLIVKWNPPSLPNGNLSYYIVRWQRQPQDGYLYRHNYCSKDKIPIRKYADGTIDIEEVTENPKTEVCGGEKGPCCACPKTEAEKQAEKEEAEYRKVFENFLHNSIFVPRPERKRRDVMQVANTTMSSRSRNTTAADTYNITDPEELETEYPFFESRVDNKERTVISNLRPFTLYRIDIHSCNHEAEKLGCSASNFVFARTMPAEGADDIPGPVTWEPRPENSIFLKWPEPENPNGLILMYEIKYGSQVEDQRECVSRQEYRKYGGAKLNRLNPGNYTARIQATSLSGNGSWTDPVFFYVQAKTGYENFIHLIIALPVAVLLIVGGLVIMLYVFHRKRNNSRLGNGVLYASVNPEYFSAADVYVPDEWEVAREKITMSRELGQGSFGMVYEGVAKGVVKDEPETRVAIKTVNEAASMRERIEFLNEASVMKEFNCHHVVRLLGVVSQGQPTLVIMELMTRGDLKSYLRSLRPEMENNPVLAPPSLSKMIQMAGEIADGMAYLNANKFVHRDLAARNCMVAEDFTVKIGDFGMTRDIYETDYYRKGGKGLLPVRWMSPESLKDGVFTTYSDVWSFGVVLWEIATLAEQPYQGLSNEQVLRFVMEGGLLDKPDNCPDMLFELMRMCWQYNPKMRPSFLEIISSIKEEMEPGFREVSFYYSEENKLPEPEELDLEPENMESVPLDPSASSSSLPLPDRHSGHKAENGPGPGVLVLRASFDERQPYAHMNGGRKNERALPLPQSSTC
T1 sequence (Q9NZQ7 19-238): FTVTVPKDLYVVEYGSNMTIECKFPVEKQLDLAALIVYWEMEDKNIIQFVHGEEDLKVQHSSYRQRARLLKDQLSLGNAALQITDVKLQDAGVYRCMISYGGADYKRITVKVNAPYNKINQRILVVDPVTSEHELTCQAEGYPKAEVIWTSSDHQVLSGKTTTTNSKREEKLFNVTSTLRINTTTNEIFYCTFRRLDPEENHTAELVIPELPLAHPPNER

B1: 抗IGF1R单抗 A12 (antibody, human IgG1, lambda, V domains shown)
VH: EVQLVQSGAEVKKPGSSVKVSCKASGGTFSSYAISWVRQAPGQGLEWMGGIIPIFGTANYAQKFQGRVTITADKSTSTAYMELSSLRSEDTAVYYCARAPLRFLEWSTQDHYYYYYMDVWGKGTTVTVSS
VL: SSELTQDPAVSVALGQTVRITCQGDSLRSYYATWYQQKPGQAPILVIYGENKRPSGIPDRFSGSSSGNTASLTITGAQAEDEADYYCKSRDGSGQHLVFGGGTKLTVLG
notes: also called anti-IGF1RmAb; 抗IGF1R抗体A12
Turning to B1, the binding result with PDL1-ECD-hFc蛋白 was “no binding (tested: 起始浓度为30nM)”. Further, the “IC50, inhibition of BxPC3 proliferation with IGF-1 100 ng/mL (CCK8)” value (“IC50, inhibition of BxPC3 proliferation” below) with IGF1R on BxPC3 cells was 6770 pM and 14000 pM. Also, the EC50 with IGF1R-ECD-His蛋白 [1] was 157 pM and 67.6 pM.

B2: 抗PD-L1单抗(anti-PDL1 mAb) (antibody, human IgG1, kappa, V domains shown)
VH: QVQLQQSGGGLVKPSQSLSLTCTVSGFSLTSYGVHWVRQPPGKGLEWIGLIWSGGGTDYNPSLKSRLTISRDTSKNQVSFKISSLTAADTAVYYCARQLGLRAMDYWGQGTSVTVSS
VL: EIVLTQSPDFLSVTPKEKVTITCRASQSIGTTIHWYQQKPDQSPKLLIKYASQSFSGVPSRFSGSGSGTDFTLTINSVEAEDAATYYCQQSNSWPLTFGAGTKLEIKR
notes: also called 抗人PD-L1单抗
With B2, the “EC50, PD-1/PD-L1 Blockade Bioassay (luciferase reporter)” value (“EC50, PD-1/PD-L1 Blockade Bioassay” for short) in assay [2] is 364 pM and 901 pM. Moreover, in the assay with IGF1R-ECD-His蛋白 [3], the binding result is “no binding (tested: 起始浓度为30nM)”. In the assay with PDL1-ECD-His蛋白, the EC50 is 83.6 pM and 146 pM.

B3: 抗PDL1×IGF1R双特异性抗体 D31-1 (bispecific antibody, human IgG1, lambda)
heavy: not shown
light: SSELTQDPAVSVALGQTVRITCQGDSLRSYYATWYQQKPGQAPILVIYGENKRPSGIPDRFSGSSSGNTASLTITGAQAEDEADYYCKSRDGSGQHLVFGGGTKLTVLGQPKAAPSVTLFPPSSEELQANKATLVCLISDFYPGAVTVAWKADSSPVKAGVETTTPSKQSNNKYAASSYLSLTPEQWKSHRSYSCQVTHEGSTVEKTVAPAECS
notes: A12 IgG1 with anti-PDL1 scFv1 (VL-L1-VH) at the C-terminus of each heavy chain
Consider B3, for which the “EC50, PD-1/PD-L1 Blockade Bioassay” value in assay [2] stood at 2980 pM. For the same molecule, the EC50 with PDL1-ECD-His蛋白 was 391 pM; in the assay with IGF1R-ECD-His蛋白 [1] it was 193 pM. In addition, the “IC50, inhibition of BxPC3 proliferation” value with IGF1R on BxPC3 cells stood at 1960 pM.

B4: 抗PDL1×IGF1R双特异性抗体 D31-3 (bispecific antibody, human IgG1, lambda)
heavy: not shown
light: SSELTQDPAVSVALGQTVRITCQGDSLRSYYATWYQQKPGQAPILVIYGENKRPSGIPDRFSGSSSGNTASLTITGAQAEDEADYYCKSRDGSGQHLVFGGGTKLTVLGQPKAAPSVTLFPPSSEELQANKATLVCLISDFYPGAVTVAWKADSSPVKAGVETTTPSKQSNNKYAASSYLSLTPEQWKSHRSYSCQVTHEGSTVEKTVAPAECS
notes: A12 IgG1 with anti-PDL1 scFv2 at the N-terminus of each heavy chain
With B4, in assay [2], the “EC50, PD-1/PD-L1 Blockade Bioassay” value was 1830 pM. In addition, the results for the EC50 with PDL1-ECD-His蛋白 and with IGF1R-ECD-His蛋白 [1] were 301 pM and 315 pM, respectively. Also, in the assay with IGF1R on BxPC3 cells, the “IC50, inhibition of BxPC3 proliferation” value was 47700 pM.

B5: 抗PDL1×IGF1R双特异性抗体 D31-4 (bispecific antibody, human IgG1, lambda)
heavy: not shown
light: SSELTQDPAVSVALGQTVRITCQGDSLRSYYATWYQQKPGQAPILVIYGENKRPSGIPDRFSGSSSGNTASLTITGAQAEDEADYYCKSRDGSGQHLVFGGGTKLTVLGQPKAAPSVTLFPPSSEELQANKATLVCLISDFYPGAVTVAWKADSSPVKAGVETTTPSKQSNNKYAASSYLSLTPEQWKSHRSYSCQVTHEGSTVEKTVAPAECS
notes: A12 IgG1 with anti-PDL1 scFv1 at the N-terminus of each heavy chain
On to B5, for which the “EC50, PD-1/PD-L1 Blockade Bioassay” value in assay [2] turned out to be 1310 pM. Moreover, the EC50 with PDL1-ECD-His蛋白 and with IGF1R-ECD-His蛋白 [1] was 249 pM in each case. Besides, the “IC50, inhibition of BxPC3 proliferation” value with IGF1R on BxPC3 cells was 16500 pM.

B6: 抗PDL1×IGF1R双特异性抗体 D31-2 (bispecific antibody, human IgG1, lambda)
heavy: not shown
light: SSELTQDPAVSVALGQTVRITCQGDSLRSYYATWYQQKPGQAPILVIYGENKRPSGIPDRFSGSSSGNTASLTITGAQAEDEADYYCKSRDGSGQHLVFGGGTKLTVLGQPKAAPSVTLFPPSSEELQANKATLVCLISDFYPGAVTVAWKADSSPVKAGVETTTPSKQSNNKYAASSYLSLTPEQWKSHRSYSCQVTHEGSTVEKTVAPAECS
notes: A12 IgG1 with anti-PDL1 scFv2 (VH-L1-VL) at the C-terminus of each heavy chain
With B6, in assay [2], the “EC50, PD-1/PD-L1 Blockade Bioassay” value worked out at 1750 pM. For the same molecule, the results for the EC50 with PDL1-ECD-His蛋白 and with IGF1R-ECD-His蛋白 [1] were 296 pM and 185 pM, respectively. The “IC50, inhibition of BxPC3 proliferation” value with IGF1R on BxPC3 cells was 2510 pM.

B7: 抗PDL1×IGF1R双特异性抗体 D31-5 (bispecific antibody, human IgG1, kappa)
heavy: not shown
light: EIVLTQSPDFLSVTPKEKVTITCRASQSIGTTIHWYQQKPDQSPKLLIKYASQSFSGVPSRFSGSGSGTDFTLTINSVEAEDAATYYCQQSNSWPLTFGAGTKLEIKRTVAAPSVFIFPPSDEQLKSGTASVVCLLNNFYPREAKVQWKVDNALQSGNSQESVTEQDSKDSTYSLSSTLTLSKADYEKHKVYACEVTHQGLSSPVTKSFNRGEC
notes: Anti-PDL1 IgG1 with A12 scFv1 (VL-L1-VH) at the C-terminus of each heavy chain
With B7, in assay [2], the “EC50, PD-1/PD-L1 Blockade Bioassay” value is 401 pM. For the same molecule, the EC50 in the assay with PDL1-ECD-His蛋白 was 85.8 pM; in the assay with IGF1R-ECD-His蛋白 [1], 137 pM. For the same molecule, the “IC50, inhibition of BxPC3 proliferation” value in the assay with IGF1R on BxPC3 cells was 39600 pM.

B8: 抗PDL1×IGF1R双特异性抗体 D31-7 (bispecific antibody, human IgG1, kappa)
heavy: not shown
light: EIVLTQSPDFLSVTPKEKVTITCRASQSIGTTIHWYQQKPDQSPKLLIKYASQSFSGVPSRFSGSGSGTDFTLTINSVEAEDAATYYCQQSNSWPLTFGAGTKLEIKRTVAAPSVFIFPPSDEQLKSGTASVVCLLNNFYPREAKVQWKVDNALQSGNSQESVTEQDSKDSTYSLSSTLTLSKADYEKHKVYACEVTHQGLSSPVTKSFNRGEC
notes: Anti-PDL1 IgG1 with A12 scFv2 at the N-terminus of each heavy chain
On to B8, for which the “EC50, PD-1/PD-L1 Blockade Bioassay” value in assay [2] is 496 pM. Besides, the figures for the EC50 with PDL1-ECD-His蛋白 and in the assay with IGF1R-ECD-His蛋白 [1] were 74.9 pM and 64.8 pM, respectively. Further, in the assay with IGF1R on BxPC3 cells, the “IC50, inhibition of BxPC3 proliferation” value was found to be 20500 pM.

B9: 抗PDL1×IGF1R双特异性抗体 D31-8 (bispecific antibody, human IgG1, kappa)
heavy: not shown
light: EIVLTQSPDFLSVTPKEKVTITCRASQSIGTTIHWYQQKPDQSPKLLIKYASQSFSGVPSRFSGSGSGTDFTLTINSVEAEDAATYYCQQSNSWPLTFGAGTKLEIKRTVAAPSVFIFPPSDEQLKSGTASVVCLLNNFYPREAKVQWKVDNALQSGNSQESVTEQDSKDSTYSLSSTLTLSKADYEKHKVYACEVTHQGLSSPVTKSFNRGEC
notes: Anti-PDL1 IgG1 with A12 scFv1 at the N-terminus of each heavy chain
For the molecule B9, the “EC50, PD-1/PD-L1 Blockade Bioassay” value in assay [2] came to 390 pM. Besides, the results for the EC50 with PDL1-ECD-His蛋白 and in the assay with IGF1R-ECD-His蛋白 [1] were 57.2 pM and 46.5 pM, respectively. In addition, the “IC50, inhibition of BxPC3 proliferation” value in the assay with IGF1R on BxPC3 cells came to 5620 pM.

B10: 抗PDL1×IGF1R双特异性抗体 D31-6 (bispecific antibody, human IgG1, kappa)
heavy: not shown
light: EIVLTQSPDFLSVTPKEKVTITCRASQSIGTTIHWYQQKPDQSPKLLIKYASQSFSGVPSRFSGSGSGTDFTLTINSVEAEDAATYYCQQSNSWPLTFGAGTKLEIKRTVAAPSVFIFPPSDEQLKSGTASVVCLLNNFYPREAKVQWKVDNALQSGNSQESVTEQDSKDSTYSLSSTLTLSKADYEKHKVYACEVTHQGLSSPVTKSFNRGEC
notes: Anti-PDL1 IgG1 with A12 scFv2 (VH-L1-VL) at the C-terminus of each heavy chain
B10: the “EC50, PD-1/PD-L1 Blockade Bioassay” value in assay [2] was 336 pM. For the same molecule, the EC50 was 79 pM with PDL1-ECD-His蛋白 and 96.1 pM with IGF1R-ECD-His蛋白 [1]. Besides, the “IC50, inhibition of BxPC3 proliferation” value with IGF1R on BxPC3 cells came to 67000 pM.
